Measurements taken from patent publication US20240317847A1 (Bayer, published 2024).

What was measured:
murine IL-11 = target: T1, murine IL-11 (mouse, UniProt P47873 22-199); assay: SPR 37 C, antibody captured, IL-11 as analyte
T1 construct: Invigate, e.g. lot #C210819-09; biotinylated where coated in the ELISA; also called mIL-11; mIL11
T1 sequence: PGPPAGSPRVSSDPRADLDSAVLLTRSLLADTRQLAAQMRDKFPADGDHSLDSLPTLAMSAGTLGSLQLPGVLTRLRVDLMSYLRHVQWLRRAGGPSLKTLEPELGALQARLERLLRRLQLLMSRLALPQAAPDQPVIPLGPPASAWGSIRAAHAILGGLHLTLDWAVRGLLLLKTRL

cynomolgus IL-11 = target: T2, cynomolgus IL-11 (cynomolgus, UniProt P20808 22-199); assay: SPR 37 C, antibody captured, IL-11 as analyte
T2 construct: Invigate, lot #C290621-19; also called cIL11; cynoL-11
T2 sequence: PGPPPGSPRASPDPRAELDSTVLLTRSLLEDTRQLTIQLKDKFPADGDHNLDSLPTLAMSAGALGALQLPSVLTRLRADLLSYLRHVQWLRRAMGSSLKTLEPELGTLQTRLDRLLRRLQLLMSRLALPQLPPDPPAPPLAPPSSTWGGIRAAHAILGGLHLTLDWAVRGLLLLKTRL

rat IL-11 = target: T3, rat IL-11 (rat, UniProt Q99MF5 22-199); assay: SPR 37 C, antibody captured, IL-11 as analyte
T3 construct: Invigate, e.g. lot #C301019-19; also called rIL11
T3 sequence: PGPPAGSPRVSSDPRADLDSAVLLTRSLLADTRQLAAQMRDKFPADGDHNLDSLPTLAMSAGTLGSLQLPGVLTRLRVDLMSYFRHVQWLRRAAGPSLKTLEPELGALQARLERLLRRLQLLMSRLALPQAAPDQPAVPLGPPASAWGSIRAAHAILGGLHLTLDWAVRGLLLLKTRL

human IL2Ra = target: T4, human IL2Ra (human, UniProt P01589 22-240, limits assumed); assay: IL2Ra direct binding ELISA, signal ratio to isotype control
T4 construct: bought protein, coated on the plate; also called hIL2RA; IL-2 receptor alpha
T4 sequence (looked up): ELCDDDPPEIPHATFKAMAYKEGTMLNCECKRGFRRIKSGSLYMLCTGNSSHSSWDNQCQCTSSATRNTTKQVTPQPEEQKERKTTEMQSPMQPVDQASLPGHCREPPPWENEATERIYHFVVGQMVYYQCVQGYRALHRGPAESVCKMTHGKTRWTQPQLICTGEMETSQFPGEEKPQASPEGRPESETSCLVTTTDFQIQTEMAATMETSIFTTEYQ
Method in brief: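 Plates coated overnight at 4-8 °C with IL2RA at 1 or 0 μg/ml, blocked with SmartBlock. Antibody dilution series from 1E-7 to 2E-13 M bound 90 min at room temperature, detected with HRP anti-mouse IgG and Amplex red/H2O2; fluorescence at 535/590 nm.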

B1: TPP-18068 (antibody, mouse IgG1)
heavy: EVQLLESGGGLVQPGGSLRLSCAASGFTFSSYGMHWVRQAPGKGLEWVSVISYDGSYKYYADSVKGRFTISRDNSKNTLYLQMNSLRAEDTAVYYCAAGVPDYWGQGTLVTVSSAKTTPPSVYPLAPGSAAQTNSMVTLGCLVKGYFPEPVTVTWNSGSLSSGVHTFPAVLQSDLYTLSSSVTVPSSTWPSETVTCNVAHPASSTKVDKKIVPRDCGCKPCICTVPEVSSVFIFPPKPKDVLTITLTPKVTCVVVDISKDDPEVQFSWFVDDVEVHTAQTQPREEQFNSTFRSVSELPIMHQDWLNGKEFKCRVNSAAFPAPIEKTISKTKGRPKAPQVYTIPPPKEQMAKDKVSLTCMITDFFPEDITVEWQWNGQPAENYKNTQPIMDTDGSYFVYSKLNVQKSNWEAGNTFTCSVLHEGLHNHHTEKSLSHSPGK
light: QSVLTQPPSASGTPGQRVTISCTGSSSNIGAGYDVHWYQQLPGTAPKLLIYSNNERPSGVPDRFSGSKSGTSASLAISGLRSEDEADYYCAAWDDSLNGPVFGGGTKLTVLGQPKSSPSVTLFPPSSEELETNKATLVCTITDFYPGVVTVDWKVDGTPVTQGMETTQPSKQSNNKYMASSYLTLTARAWERHSSYSCQVTHEGHTVEKSLSRADCS
notes: mIgG1, Lambda
- Kd (murine IL-11): 0.41 nM
- Kd (cynomolgus IL-11): 5 nM
- Kd (rat IL-11): 0.58 nM
- hIL2RA ELISA Binding: Ratio to Isotpye (human IL2Ra): 398 ratio
